# Reference: US12383631
# Key:
# Assay in all cases: cell-based or functional assay
# [1] = molecular target: Composition A (LZM-009 conjugated to IL-18 polypeptide of SEQ ID NO: 30) (human) (UniProt Q14116)
# [2] = molecular target: IL-18 polypeptide C143 (human) (UniProt Q14116)
# [3] = molecular target: IL-18 polypeptide C145 (human) (UniProt Q14116)
# [4] = molecular target: IL-18 polypeptide C146 (SEQ ID NO: 68) (human) (UniProt Q14116)
# [5] = molecular target: IL-18 polypeptide C148 (human) (UniProt Q14116)
# [6] = molecular target: IL-18 polypeptide C150 (human) (UniProt Q14116)
# [7] = molecular target: IL-18 polypeptide C151 (human) (UniProt Q14116)
# [8] = molecular target: IL-18 polypeptide C153 (human) (UniProt Q14116)
# [9] = molecular target: IL-18 polypeptide C154 (human) (UniProt Q14116)
# [10] = molecular target: IL-18 polypeptide C156 (human) (UniProt Q14116)
# [11] = molecular target: IL-18 polypeptide C159 (human) (UniProt Q14116)
# [12] = molecular target: IL-18 polypeptide C161 (human) (UniProt Q14116)
# [13] = molecular target: IL-18 polypeptide C162 (human) (UniProt Q14116)
# [14] = molecular target: IL-18 polypeptide C163 (human) (UniProt Q14116)
# [15] = molecular target: IL-18 polypeptide C167 (human) (UniProt Q14116)
# [16] = molecular target: IL-18 polypeptide of SEQ ID NO: 30 (E6K, V11I, C38A, K53A, T63A, C76A, C127A) (human) (UniProt Q14116)
# [17] = molecular target: IL-18 polypeptide of SEQ ID NO: 31 (C38A, C76A, C127A) (human) (UniProt Q14116)
# [18] = molecular target: IL-18 polypeptide of SEQ ID NO: 34 (E06K, K53A, S55A) (human) (UniProt Q14116)
# [19] = molecular target: IL-18 polypeptide of SEQ ID NO: 39 (E06K, K53A) (human) (UniProt Q14116)
# [20] = molecular target: IL-18 polypeptide of SEQ ID NO: 42 (E06K, K53A, S55A, T63A) (human) (UniProt Q14116)
# [21] = molecular target: IL-18 polypeptide of SEQ ID NO: 52 (E06K, T63A) (human) (UniProt Q14116)
# [22] = molecular target: IL-18 polypeptide of SEQ ID NO: 54 (E06K, K53A, C38S, C68S, C76S, C127S, K70C) (human) (UniProt Q14116)
# [23] = molecular target: IL-18 polypeptide of SEQ ID NO: 55 (K53A, T63A, C38S, C68S, C76S, C127S, K70C) (human) (UniProt Q14116)
# [24] = molecular target: IL-18 polypeptide of SEQ ID NO: 57 (E6K, C38S, K53A) (human) (UniProt Q14116)
# [25] = molecular target: IL-18 polypeptide of SEQ ID NO: 6 (E6K, V11I, C38A, K53A, T63A, C68A, C76A, D98C, C127A) (human) (UniProt Q14116)
# [26] = molecular target: IL-18 polypeptide of SEQ ID NO: 9 (E6K, C38A, K53A, C68A, D98C) (human) (UniProt Q14116)
substance,measurement,setting,value
"Fc fused human IL-18 binding protein isoform a (IL-18BPa; R&D systems, Cat #119-BP) (from UniProt O95998 31-194) (Fc fusion)",IC50 of IL-18BPa on IFNγ secretion by NK92 cells,[1],6.87 nM
same,"IC50 of IL-18BP on IFNγ secretion, NK92 cells",[2],1.62 nM
same,"IC50 of IL-18BP on IFNγ secretion, NK92 cells",[3],10.2 nM
same,"IC50 of IL-18BP on IFNγ secretion, NK92 cells",[4],733 nM
same,"IC50 of IL-18BP on IFNγ secretion, NK92 cells",[5],5.05 nM
same,"IC50 of IL-18BP on IFNγ secretion, NK92 cells",[6],21.3 nM
same,"IC50 of IL-18BP on IFNγ secretion, NK92 cells",[7],3.62 nM
same,"IC50 of IL-18BP on IFNγ secretion, NK92 cells",[8],2.22 nM
same,"IC50 of IL-18BP on IFNγ secretion, NK92 cells",[9],3.71 nM
same,"IC50 of IL-18BP on IFNγ secretion, NK92 cells",[10],0.681 nM
same,"IC50 of IL-18BP on IFNγ secretion, NK92 cells",[11],1.81 nM
same,"IC50 of IL-18BP on IFNγ secretion, NK92 cells",[12],1.07 nM
same,"IC50 of IL-18BP on IFNγ secretion, NK92 cells",[13],7.29 nM
same,"IC50 of IL-18BP on IFNγ secretion, NK92 cells",[14],0.823 nM
same,"IC50 of IL-18BP on IFNγ secretion, NK92 cells",[15],0.809 nM
same,IC50 of IL-18BPa on IFNγ secretion by NK92 cells,[16],488 nM
same,IC50 of IL-18BPa on IFNγ secretion by NK92 cells,[17],0.282 nM
same,"IC50 of IL-18BP on IFNγ secretion, NK92 cells",[18],229 nM
same,"IC50 of IL-18BP on IFNγ secretion, NK92 cells",[19],> 703 nM
same,"IC50 of IL-18BP on IFNγ secretion, NK92 cells",[20],1060 nM
same,"IC50 of IL-18BP on IFNγ secretion, NK92 cells",[21],47.1 nM
same,"IC50 of IL-18BP on IFNγ secretion, NK92 cells",[22],23.5 nM
same,"IC50 of IL-18BP on IFNγ secretion, NK92 cells",[23],> 1000 nM
same,"IC50 of IL-18BP on IFNγ secretion, NK92 cells",[24],146 nM
same,"IC50 of IL-18BP on IFNγ secretion, NK92 cells",[25],5.85 nM
same,"IC50 of IL-18BP on IFNγ secretion, NK92 cells",[26],961 nM
